Assay results: patent publication US20240384326

What was measured:
[1] = tested on: anti-pseudouridine antibody Ab11; test: ELONA; details: unmodified control
[2] = tested on: anti-pseudouridine antibody Ab19; test: ELONA; details: unmodified control
anti-m6A antibody Ab02 = test: ELONA
anti-m5C antibody Ab16 = test: ELONA
anti-m6A antibody Ab01 = test: ELONA
anti-m6A antibody Ab05 = test: ELONA
[3] = tested on: anti-inosine antibody Ab10; test: ELONA
[4] = molecular target: APOBEC3A (E109A/E109Q as variously stated), no fusion E109A (Homo sapiens) (UniProt P31941); test: cleavage_in_vitro; details: USER assay, 10 mM MgCl2, pH 7, 37C
[5] = tested on: Ab05 randomly labeled with DNA adapter (HyNic); test: ELONA; details: m6A at position 9; random HyNic labeling
[6] = m6A at position 9, plate ELISA, avidity, stated only as subnanomolar

Sequence of APOBEC3A (E109A/E109Q as variously stated), no fusion E109A (Homo sapiens) (P31941 whole entry E109A, the tested form may be a part): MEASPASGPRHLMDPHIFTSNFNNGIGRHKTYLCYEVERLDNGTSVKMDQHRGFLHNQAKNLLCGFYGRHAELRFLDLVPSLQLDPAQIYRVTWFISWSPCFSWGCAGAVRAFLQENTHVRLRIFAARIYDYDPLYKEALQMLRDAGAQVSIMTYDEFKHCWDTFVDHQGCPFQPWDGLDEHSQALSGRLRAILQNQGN

## NNNNNNNNNNNNNNNN [unmodified degenerate reference RNA (SEQ ID NO: 5)]
[1]
  binding signal (fold weaker than cognate): 10
[2]
  binding signal (fold weaker than cognate): 10
anti-m6A antibody Ab02; unmodified control
  binding signal (fold weaker than cognate): > 100
anti-m5C antibody Ab16; unmodified control
  binding signal (fold weaker than cognate): > 100
anti-m6A antibody Ab01; unmodified control
  binding signal (fold weaker than cognate): > 100
anti-m6A antibody Ab05; unmodified control
  binding signal (fold weaker than cognate): > 100
[3]; unmodified control
  binding signal (fold weaker than cognate): > 100

## FAM-DNA oligonucleotide with a single central C
[4]
  activity (fold vs APOBEC1): > 10

## NNNNNNNNCNNNNNNNN [m5C degenerate RNA (SEQ ID NO: 4)]
anti-m5C antibody Ab16; m5C at position 9, plate ELISA, avidity, stated only as subnanomolar
  Kd: < 1 nM

## NNNNNNNNANNNNNNNN [m6A degenerate RNA (SEQ ID NO: 1)]
[5]
  binding signal (fold loss of KD vs unlabeled Ab05): > 15
anti-m6A antibody Ab02; [6]
  Kd: < 1 nM
anti-m6A antibody Ab01; m6A at position 9, plate ELISA, immobilised RNA, avidity, stated only as subnanomolar, 22C
  Kd: < 1 nM
anti-m6A antibody Ab05; [6]
  Kd: < 1 nM

## NNNNNNNNINNNNNNNN [inosine degenerate RNA (SEQ ID NO: 2 in Table 4)]
[3]; inosine at position 9, plate ELISA, avidity, stated only as subnanomolar
  Kd: < 1 nM
